# B1: 149-7 (scFv, V domains shown)
# VH: QVQLVQSGGGVVQPGRSLRLSCAASGFTFSSYGMHWVRQAPGKGLEWVAFIRYDGSNKYYADSVKGRFTISRDNSKNTLYLQMKSLRAEDTAVYYCTTHGSHDNWGQGTMVTVSS
# VL: SYVLTQPPSVSGTPGQRVTISCSGGRSNIGSNTVKWYQQLPGTAPKLLIYGNDQRPSGVPDRFSGSKSGTSASLAITGVQAEDEADYYCQSYDRDFTGSRVFGTGTKVTVL
# B2: Joe 9 wild type (scFv, V domains shown)
# VH: QVQLVQSGGGVVQPGRSLRLSCAASGFTFSSYGMHWVRQAPGKGLEWVAFIRYDGSNKYYADSVKGRFTISRDNSKNTLYLQMKSLRAEDTAVYYCTTSGSYDYWGQGTMVTVSS
# VL: SYVLTQPPSVSGTPGQRVTISCSGGRSNIGSNTVKWYQQLPGTAPKLLIYGNDQRPSGVPDRFSGSKSGTSASLAITGVQAEDEADYYCQSYDSSLRGSRVFGTGTKVTVL
# B3: Y61 scFv (scFv, V domains shown)
# VH: QVQLVQSGGGVVQPGRSLRLSCAASGFTFSSYGMHWVRQAPGKGLEWVAFIRYDGSNKYYADSVKGRFTISRDNSKNTLYLQMKSLRAEDTAVYYCKTHGSHDNWGQGTMVTVSS
# VL: SYVLTQPPSVSGTPGQRVTISCSGGRSWIGSNTVKWYQQLPGTAPKLLIYGNDQRPSGVPDRFSGSKSGTSASLAITGVQAEDEADYYCQSYDRGTHPALLFGTGTKVTVLG
# notes: Single-chain Fv; also called clone Y61
# B4: 70-1 IgG1 (antibody, V domains shown)
# VH: HGSHDN
# VL: QSYDSSLRGSRV
# Tests used:
# [1] = molecular target: recombinant murine IL-12 (mouse) (UniProt P43431); experiment: Receptor Binding Assay: inhibition of 125I-murine IL-12 binding to receptors on 2D6 cells
# [2] = molecular target: recombinant murine IL-12 (mouse) (UniProt P43431); experiment: Biomolecular Interaction Assay; C17.15 captured on goat anti-rat IgG, soluble recombinant murine IL-12
# [3] = molecular target: recombinant murine IL-12 (mouse) (UniProt P43431); experiment: cell-based or functional assay
# [4] = molecular target: human IL-12 (recombinant human IL-12, p70 heterodimer of p35 and p40) (human) (UniProt P29459); experiment: BIAcore SPR, IL-12 chip
# [5] = molecular target: T1, recombinant human IL-12 (rhIL-12) (human, UniProt P29459 23-219; P29460 23-328); experiment: cell-based or functional assay
# T1 sequence (looked up) 1: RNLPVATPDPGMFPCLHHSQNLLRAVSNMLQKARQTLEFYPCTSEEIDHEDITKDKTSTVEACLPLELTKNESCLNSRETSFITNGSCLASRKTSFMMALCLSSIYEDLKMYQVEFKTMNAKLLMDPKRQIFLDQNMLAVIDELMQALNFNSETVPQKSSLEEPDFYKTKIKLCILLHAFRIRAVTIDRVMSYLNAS
# T1 sequence (looked up) 2: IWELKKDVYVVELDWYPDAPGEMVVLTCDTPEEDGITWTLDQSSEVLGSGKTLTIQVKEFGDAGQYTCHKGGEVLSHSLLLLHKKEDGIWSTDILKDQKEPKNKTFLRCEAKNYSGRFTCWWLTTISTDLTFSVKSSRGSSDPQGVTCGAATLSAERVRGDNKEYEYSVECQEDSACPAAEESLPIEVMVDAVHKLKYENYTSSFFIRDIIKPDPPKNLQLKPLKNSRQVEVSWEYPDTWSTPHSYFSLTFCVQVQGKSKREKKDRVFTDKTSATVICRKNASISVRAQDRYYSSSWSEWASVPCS
# [6] = molecular target: human IL-12 (recombinant human IL-12, p70 heterodimer of p35 and p40) (human) (UniProt P29459); experiment: RB assay: 125I-hIL-12 binding to PHA blasts
# [7] = molecular target: human IL-12 (recombinant human IL-12, p70 heterodimer of p35 and p40) (human) (UniProt P29459); experiment: cell-based or functional assay
# [8] = molecular target: T2, recombinant human interleukin 12 (p40/p35 heterodimer) (human, UniProt P29460 23-328; P29459 23-219); experiment: IL-12 receptor binding assay (RBA): inhibition of labelled IL-12 binding to PHA blasts
# T2 construct: Disulfide-linked heterodimer; also called human IL-12; hIL-12
# T2 sequence (looked up) 1: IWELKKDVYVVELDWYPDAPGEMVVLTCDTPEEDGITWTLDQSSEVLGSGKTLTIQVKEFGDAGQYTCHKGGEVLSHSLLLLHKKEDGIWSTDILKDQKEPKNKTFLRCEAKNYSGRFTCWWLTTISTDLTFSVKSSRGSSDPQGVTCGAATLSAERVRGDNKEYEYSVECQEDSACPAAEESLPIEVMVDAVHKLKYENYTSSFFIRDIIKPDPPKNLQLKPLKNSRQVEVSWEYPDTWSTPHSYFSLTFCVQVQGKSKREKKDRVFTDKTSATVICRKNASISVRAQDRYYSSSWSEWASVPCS
# T2 sequence (looked up) 2: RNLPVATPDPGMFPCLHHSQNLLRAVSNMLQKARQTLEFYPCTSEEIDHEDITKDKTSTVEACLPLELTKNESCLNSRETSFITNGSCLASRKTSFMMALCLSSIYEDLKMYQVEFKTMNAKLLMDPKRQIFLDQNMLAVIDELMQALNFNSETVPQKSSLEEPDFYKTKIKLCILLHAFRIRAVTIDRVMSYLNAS
# [9] = molecular target: T2, recombinant human interleukin 12 …; experiment: surface plasmon resonance (BIAcore)
# [10] = molecular target: T3, human IL-12 (recombinant human IL-12, p70 heterodimer of p35 and p40) (human, UniProt P29459 23-219; P29460 23-328); experiment: cell-based or functional assay
# T3 sequence (looked up) 1: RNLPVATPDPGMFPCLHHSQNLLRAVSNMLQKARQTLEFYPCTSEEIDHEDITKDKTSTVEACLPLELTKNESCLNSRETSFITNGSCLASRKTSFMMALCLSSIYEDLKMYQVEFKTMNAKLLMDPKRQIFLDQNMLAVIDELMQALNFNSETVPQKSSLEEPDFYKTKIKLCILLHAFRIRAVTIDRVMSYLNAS
# T3 sequence (looked up) 2: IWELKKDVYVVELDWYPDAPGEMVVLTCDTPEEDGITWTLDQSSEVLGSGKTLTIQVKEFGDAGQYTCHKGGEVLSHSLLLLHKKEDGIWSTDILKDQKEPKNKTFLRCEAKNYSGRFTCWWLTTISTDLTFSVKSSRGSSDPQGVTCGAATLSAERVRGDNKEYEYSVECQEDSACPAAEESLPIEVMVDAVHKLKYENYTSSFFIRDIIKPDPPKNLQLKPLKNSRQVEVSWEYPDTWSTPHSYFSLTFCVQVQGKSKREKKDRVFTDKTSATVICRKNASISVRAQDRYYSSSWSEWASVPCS
# recombinant murine IL-12 (mouse), sequence (P43431 23-215, chain 1 of 2): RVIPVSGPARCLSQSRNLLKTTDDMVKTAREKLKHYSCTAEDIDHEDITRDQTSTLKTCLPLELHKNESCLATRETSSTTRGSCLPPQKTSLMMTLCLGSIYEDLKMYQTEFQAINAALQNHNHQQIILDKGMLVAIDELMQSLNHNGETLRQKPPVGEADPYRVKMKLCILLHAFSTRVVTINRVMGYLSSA
# recombinant murine IL-12 (mouse), sequence (P43432 23-335, chain 2 of 2, further chain): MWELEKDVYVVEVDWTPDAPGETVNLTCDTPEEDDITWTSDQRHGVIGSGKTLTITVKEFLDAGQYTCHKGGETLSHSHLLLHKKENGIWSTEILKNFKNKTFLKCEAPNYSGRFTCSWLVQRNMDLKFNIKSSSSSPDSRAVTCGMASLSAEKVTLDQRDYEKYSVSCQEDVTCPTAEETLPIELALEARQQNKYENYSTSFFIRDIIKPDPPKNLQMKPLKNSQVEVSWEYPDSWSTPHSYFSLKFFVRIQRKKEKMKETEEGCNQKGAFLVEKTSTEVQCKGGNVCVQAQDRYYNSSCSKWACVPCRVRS
molecule,measurement,setting,value
"C17.15, rat anti-murine IL-12 monoclonal antibody",IC50,[1],0.15 nM
same,Kd,[2],0.48 nM
same,koff,[2],0.000184 s⁻¹
same,kon,[2],380000 M⁻¹ s⁻¹
same,"IC50 (M), Mouse IL-12 Purified",[3],3e-11 M
same,PHA blast Assay IC50,[3],0.014 nM
B1,koff,[4],0.00113 s⁻¹
same,PHA assay IC50 (M) p70:p40 1:0,[5],3.5e-09 M
same,PHA assay IC50 (M) p70:p40 1:20,[5],2.5e-09 M
same,PHA assay IC50 (M) p70:p40 1:50,[5],4e-09 M
same,IC50,[6],0.9 nM
same,PHA assay IC50,[7],3 nM
B2,IC50,[8],1000 nM
B3,koff,[9],~0.0002 s⁻¹
B4,PHA assay IC50,[10],200 nM

# Reference: patent publication US20110123544A1 (published 2011)
